Source: US20030125523A1 (VEGENICS, published 2003)
Values belong to the molecule of their own block, whether it stands above or below them.

Experiments:
[1] = target: NP-1 expressed on PAE-NP-1 cells (UniProt O14786); experiment: competition of 125I-hVEGF165 (1 ng/ml) binding to PAE-NP-1 cells by 20 µg/ml GST fusion
[2] = target: T1, soluble Neuropilin-1-Ig fusion protein (extracellular domain of mouse NP-1 fused to the human IgG Fc-part) (mouse; human, UniProt P97333 22-856); experiment: precipitation of 35S-labelled growth factor from conditioned medium with NP-1-Ig on protein A sepharose, SDS-PAGE
T1 construct: extracellular domain; Made in transfected 293T cells and captured on protein A sepharose; also called NP-1-Ig; soluble NP-1-Ig; not shown: human IgG Fc-part encoded by the pIgplus vector (Ingenius)
T1 sequence (looked up): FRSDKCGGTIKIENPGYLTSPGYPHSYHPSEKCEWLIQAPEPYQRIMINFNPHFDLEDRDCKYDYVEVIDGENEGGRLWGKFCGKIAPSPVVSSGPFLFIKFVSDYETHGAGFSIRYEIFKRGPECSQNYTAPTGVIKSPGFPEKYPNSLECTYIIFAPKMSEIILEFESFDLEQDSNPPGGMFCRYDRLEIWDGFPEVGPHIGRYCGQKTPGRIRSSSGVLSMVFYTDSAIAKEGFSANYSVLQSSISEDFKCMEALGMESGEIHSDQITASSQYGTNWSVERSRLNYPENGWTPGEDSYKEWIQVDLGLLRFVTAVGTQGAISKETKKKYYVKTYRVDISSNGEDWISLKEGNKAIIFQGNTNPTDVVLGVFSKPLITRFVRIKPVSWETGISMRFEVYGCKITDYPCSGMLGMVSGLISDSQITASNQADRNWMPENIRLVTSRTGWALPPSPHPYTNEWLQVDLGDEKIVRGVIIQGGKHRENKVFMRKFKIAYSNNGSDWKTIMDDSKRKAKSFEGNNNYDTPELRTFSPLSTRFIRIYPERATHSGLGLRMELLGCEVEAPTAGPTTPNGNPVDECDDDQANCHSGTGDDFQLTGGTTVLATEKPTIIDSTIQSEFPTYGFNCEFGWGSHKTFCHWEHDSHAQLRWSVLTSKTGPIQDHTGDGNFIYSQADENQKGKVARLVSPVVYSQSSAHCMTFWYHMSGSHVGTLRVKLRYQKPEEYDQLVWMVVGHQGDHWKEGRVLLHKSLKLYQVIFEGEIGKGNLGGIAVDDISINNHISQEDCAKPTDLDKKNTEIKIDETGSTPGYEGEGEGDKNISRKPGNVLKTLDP

[3] = target: T1, soluble Neuropilin-1-Ig fusion protein …; experiment: precipitation of 35S-labelled growth factor with NP-1-Ig on protein A sepharose, SDS-PAGE (FIG. 7)
[4] = target: T1, soluble Neuropilin-1-Ig fusion protein …; experiment: precipitation of 35S-labelled growth factor with NP-1-Ig on protein A sepharose, SDS-PAGE (FIG. 6)
[5] = target: T1, soluble Neuropilin-1-Ig fusion protein …; experiment: precipitation of 35S-labelled growth factor from conditioned medium with NP-1-Ig on protein A sepharose, SDS-PAGE (FIG. 3)
Procedure: 293-T or 293EBNA cells were similarly transfected with plasmids encoding hVEGF₁₆₅, mVEGF-B₁₆₇, mVEGF-B₁₈₆, hVEGF-C, hVEGF-D, PlGF-1 or PlGF-2, and the transfected cells were metabolically labeled 24 hours post transfection with 100 μCi/ml Pro-mix TML-³⁵S (Amersham) for 6 to 7 hours. 10 μg/ml heparin was added to the labeling medium to facilitate the release of the heparin sulphate-binding growth factors from the cell surface and pericellular matrix. Metabolically labeled media, with the exception of the medium used for VEGF transfection, were immunodepleted of endogenous VEGF by immunoprecipitating with VEGF antibody for two hours. Similar amounts of media containing the metabolically labeled growth factors were then used for immunoprecipitation or for receptor binding analysis. Growth factors were incubated for 3 hours at room temperature with receptor-Igs in binding buffer (phosphate buffered saline (PBS), 0.5% BSA, 0.2% Tween 20). The sepharose beads were then washed once with ice cold binding buffer and three times with PBS and analyzed by 15% SDS-PAGE.
Immunoprecipitations were carried out using specific antibodies against VEGF₁₆₅, VEGF-B₁₆₇, VEGF-B₁₈₆, VEGF-C, VEGF-D and protein A sepharose. […] In contrast, no significant binding was detected between NP-1-Ig and hVEGF-D or PlGF-1. […]

NP-1 expressed on PAE-NP-1 cells, sequence (O14786 22-923 limits assumed): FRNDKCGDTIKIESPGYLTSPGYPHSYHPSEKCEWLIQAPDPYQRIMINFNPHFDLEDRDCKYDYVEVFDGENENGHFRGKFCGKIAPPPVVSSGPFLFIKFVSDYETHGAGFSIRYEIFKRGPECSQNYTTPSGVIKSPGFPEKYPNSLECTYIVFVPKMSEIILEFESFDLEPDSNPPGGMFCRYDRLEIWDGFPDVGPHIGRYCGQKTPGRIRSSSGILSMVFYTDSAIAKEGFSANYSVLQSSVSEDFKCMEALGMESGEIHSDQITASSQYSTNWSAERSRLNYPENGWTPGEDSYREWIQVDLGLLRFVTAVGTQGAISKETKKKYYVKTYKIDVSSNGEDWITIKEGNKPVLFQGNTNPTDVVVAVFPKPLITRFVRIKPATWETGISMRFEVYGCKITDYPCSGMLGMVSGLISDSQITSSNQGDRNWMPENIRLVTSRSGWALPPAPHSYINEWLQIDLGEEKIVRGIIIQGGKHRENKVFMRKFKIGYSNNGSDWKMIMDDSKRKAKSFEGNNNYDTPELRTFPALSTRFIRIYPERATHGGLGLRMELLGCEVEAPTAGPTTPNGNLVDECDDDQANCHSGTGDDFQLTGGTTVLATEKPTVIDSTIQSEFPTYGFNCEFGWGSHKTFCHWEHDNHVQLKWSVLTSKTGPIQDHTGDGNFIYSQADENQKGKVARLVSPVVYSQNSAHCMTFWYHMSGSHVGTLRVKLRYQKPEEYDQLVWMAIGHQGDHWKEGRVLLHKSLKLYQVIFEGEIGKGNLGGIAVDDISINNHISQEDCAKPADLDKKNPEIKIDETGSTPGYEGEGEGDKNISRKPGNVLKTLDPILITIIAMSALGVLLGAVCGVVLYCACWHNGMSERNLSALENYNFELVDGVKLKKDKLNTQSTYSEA

Molecule: GST-VEGF-B167 exon 6B fusion protein (GST fused to amino acids 117-161 of mVEGF-B167) (from UniProt P49766 117-161)
percent competition [1]: 50%

B1: mouse VEGF-B167 (ligand, UniProt P49766-2 22-188, looked up)
chain: PVSQFDGPSHQKKVVPWIDVYARATCQPREVVVPLSMELMGNVVKQLVPSCVTVQRCGGCCPDDGLECVPTGQHQVRMQILMIQYPSSQLGEMSLEEHSQCECRPKKKESAVKPDSPRILCPPCTQRRQRPDPRTCRCRCRRRRFLHCQGRGLELNPDTCRCRKPRK
notes: 35S metabolically labelled, from conditioned medium of transfected cells; also called mVEGF-B167
binding result [2]: binds

B2: human VEGF165 (ligand, UniProt P15692-4 27-191, looked up)
chain: APMAEGGGQNHHEVVKFMDVYQRSYCHPIETLVDIFQEYPDEIEYIFKPSCVPLMRCGGCCNDEGLECVPTEESNITMQIMRIKPHQGQHIGEMSFLQHNKCECRPKKDRARQENPCGPCSERRKHLFVQDPQTCKCSCKNTDSRCKARQLELNERTCRCDKPRR
notes: also called hVEGF165; rhVEGF165
binding result [2]: binds

The remaining lines, values ahead:

binding result [3]: binds
B3: human VEGF-C (full length) (ligand, UniProt P49767 32-419, looked up)
chain: FESGLDLSDAEPDAGEATAYASKDLEEQLRSVSSVDELMTVLYPEYWKMYKCQLRKGGWQHNREQANLNSRTEETIKFAAAHYNTEILKSIDNEWRKTQCMPREVCIDVGKEFGVATNTFFKPPCVSVYRCGGCCNSEGLQCMNTSTSYLSKTLFEITVPLSQGPKPVTISFANHTSCRCMSKLDVYRQVHSIIRRSLPATLPQCQAANKTCPTNYMWNNHICRCLAQEDFMFSSDAGDDSTDGFHDICGPNKELDEETCQCVCRAGLRPASCGPHKELDRNSCQCVCKNKLFPSQCGANREFDENTCQCVCKRTCPRNQPLNPGKCACECTESPQKCLLKGKKFHHQTCSCYRRPCTNRQKACEPGFSYSEEVCRCVPSYWKRPQMS
notes: 35S labelled, from conditioned medium of transfected cells; also called hVEGF-C; full length VEGF-C

binding result [4]: no binding
B4: mVEGF-BkEx1-5 (ligand, mouse, UniProt P49766 22-136, looked up)
chain: PVSQFDGPSHQKKVVPWIDVYARATCQPREVVVPLSMELMGNVVKQLVPSCVTVQRCGGCCPDDGLECVPTGQHQVRMQILMIQYPSSQLGEMSLEEHSQCECRPKKKESAVKPD
notes: domain: exons 1-5; also called murine VEGF-BkEx1-5; construct containing exons 1-5 of murine VEGF-B

binding result [5]: no binding
B5: PlGF-1 (ligand, UniProt P49763-2 19-149, looked up)
chain: LPAVPPQQWALSAGNGSSEVEVVPFQEVWGRSYCRALERLVDVVSEYPSEVEHMFSPSCVSLLRCTGCCGDENLHCVPVETANVTMQLLKIRSGDRPSYVELTFSQHVRCECRPLREKMKPERCGDAVPRR
notes: 35S labelled, from conditioned medium of transfected cells; also called placenta growth factor isoform 1
